Measured values published in PMC10801562 (Antibodies, 2024).
Positions count from the first letter of the chain named. Each block holds one binder with its values, some of them ahead of it.

Columns and labels:
[1] = target: T1, recombinant human CD3ε-CD3δ heterodimeric protein (CD3εδ) (Homo sapiens); assay: SPR; Biacore T200, 37 °C, pH 7.4, PB-P+; antibody captured (630 RU) by anti-mouse IgG (Fc) antibody on a CM4 chip; human CD3εδ as analyte, 18.8-19,200 nmol/L (mHIT3a, mOKT3) or 75-76,800 nmol/L (m12F6); steady state model; details: both partners purified
T1 construct: human CD3ε of the recombinant CD3εδ heterodimer; human CD3δ of the recombinant CD3εδ heterodimer; source: in-house prepared
T1 chain 1: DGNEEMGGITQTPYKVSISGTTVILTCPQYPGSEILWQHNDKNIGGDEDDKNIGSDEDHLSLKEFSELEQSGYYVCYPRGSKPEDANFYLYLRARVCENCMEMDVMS
T1 chain 2: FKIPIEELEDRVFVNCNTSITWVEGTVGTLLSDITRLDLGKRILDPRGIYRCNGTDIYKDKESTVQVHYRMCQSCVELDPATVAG

[2] = target: T1, recombinant human CD3ε-CD3δ …; assay: SPR; Biacore T200, 37 °C, pH 7.4, PB-P+; antibody captured (630 RU) by anti-mouse IgG (Fc) antibody on a CM4 chip; human CD3εδ as analyte, 1.2-4800 nmol/L; 1:1 binding model (mUCHT1, mSP34); details: both partners purified

Kd [1]: 4.48 µM
B1: mOKT3 mIgG1 V1+C19, homodimeric antibody with FAST-Ig V1+C19 mutations (antibody, V domains shown)
VH: not shown
VL: QIVLTQSPAIMSASPGEKVTMTCSASSSVSYMNWYQKKSGTSPKRWIYDTSKLASGVPAHFRGSGSGTSYSLTISGMEAEDAATYYCQQWSSNPFTFGSGTKLEIN
notes: VH of mOKT3; mouse IgG1 (mIgG1) heavy chain constant region; numbers count on: Eu numbering; VL of mOKT3; mouse kappa light chain constant region (CL); numbers count on: Kabat numbering; Whole IgG of one HC and one LC; also called anti-CD3; H2L2H2L2; source: Expi293F, transiently expressed, purified (Ab-Capcher MAG2 or MonoSpin ProG); copies: 2 + 2

Kd [1]: 10.4 µM
B2: mHIT3a mIgG2a V1+C19, homodimeric antibody with FAST-Ig V1+C19 mutations (antibody, V domains shown)
VH: QVQLQESGAELARPGASVKMSCKASGYTFTRYTMHWVKERPGQGLEWIGYINPSRGYTNYNQKFKDKATLTTDKSSSTAYMELTRLTSEDSAVYYCARYYDDHYCLDYWGQGTTVTVSS
VL: B1 VL with Q1D, V3E, H60R, R62S, I105L, N106K
notes: VH of mHIT3a; mouse IgG2a (mIgG2a) heavy chain constant region; numbers count on: Eu numbering; VL of mHIT3a; mouse kappa light chain constant region (CL); numbers count on: Kabat numbering; Whole IgG of one HC and one LC; also called anti-CD3; H2L2H2L2; source: Expi293F, transiently expressed, purified (Ab-Capcher MAG2, MonoSpin ProA or MonoSpin ProG); copies: 2 + 2

Kd [1]: 10.4 µM
B3: mHIT3a mIgG2a, homodimeric antibody without FAST-Ig mutations (antibody, V domains shown)
VH: B2 VH with E39Q
VL: B1 VL with Q1D, V3E, K37Q, H60R, R62S, I105L, N106K
notes: VH of the original mouse antibody mHIT3a; mouse IgG2a (mIgG2a) heavy chain constant region; numbers count on: Eu numbering; VL of the original mouse antibody mHIT3a; mouse kappa light chain constant region (CL); Whole IgG of one HC and one LC; also called anti-CD3; H2L2H2L2; source: Expi293F, transiently expressed, purified (Ab-Capcher MAG2, MonoSpin ProA or MonoSpin ProG); copies: 2 + 2

Kd [1]: 7.68 µM
B4: mOKT3 mIgG2a V1+C19, homodimeric antibody with FAST-Ig V1+C19 mutations (antibody, V domains shown)
VH: not shown
VL: B1 VL
notes: VH of mOKT3; mouse IgG2a (mIgG2a) heavy chain constant region; numbers count on: Eu numbering; VL of mOKT3; mouse kappa light chain constant region (CL); numbers count on: Kabat numbering; Whole IgG of one HC and one LC; also called anti-CD3; H2L2H2L2; source: Expi293F, transiently expressed, purified (Ab-Capcher MAG2, MonoSpin ProA or MonoSpin ProG); copies: 2 + 2

Kd [2]: 0.00132 µM
B7: mUCHT1 mIgG1 V1+C19, homodimeric antibody with FAST-Ig V1+C19 mutations (antibody, V domains shown)
VH: EVQLQQSGPELVKPGASMKISCKASGYSFTGYTMNWVKESHGKNLEWMGLINPYKGVSTYNQKFKDKATLTVDKSSSTAYMELLSLTSEDSAVYYCARSGYYGDSDWYFDVWGQGTTLTVFS
VL: DIQMTQTTSSLSASLGDRVTISCRASQDIRNYLNWYQKKPDGTVKLLIYYTSRLHSGVPSKFSGSGSGTDYSLTISNLEQEDIATYFCQQGNTLPWTFAGGTKLEIK
notes: VH of mUCHT1; mouse IgG1 (mIgG1) heavy chain constant region; numbers count on: Eu numbering; VL of mUCHT1; mouse kappa light chain constant region (CL); numbers count on: Kabat numbering; Whole IgG of one HC and one LC; also called anti-CD3; H2L2H2L2; source: Expi293F, transiently expressed, purified (Ab-Capcher MAG2 or MonoSpin ProG); copies: 2 + 2

Kd [2]: 0.00102 µM
B8: mUCHT1 mIgG2a, homodimeric antibody without FAST-Ig mutations (antibody, V domains shown)
VH: B7 VH with E39Q
VL: B7 VL with K38Q
notes: VH of the original mouse antibody mUCHT1; mouse IgG2a (mIgG2a) heavy chain constant region; numbers count on: Eu numbering; VL of the original mouse antibody mUCHT1; mouse kappa light chain constant region (CL); Whole IgG of one HC and one LC; also called anti-CD3; H2L2H2L2; source: Expi293F, transiently expressed, purified (Ab-Capcher MAG2, MonoSpin ProA or MonoSpin ProG); copies: 2 + 2

Second part, the binder before the results:

B5: mHIT3a mIgG1, homodimeric antibody without FAST-Ig mutations (antibody, V domains shown)
VH: B2 VH with E39Q
VL: B1 VL with Q1D, V3E, K37Q, H60R, R62S, I105L, N106K
notes: VH of the original mouse antibody mHIT3a; mouse IgG1 (mIgG1) heavy chain constant region; numbers count on: Eu numbering; VL of the original mouse antibody mHIT3a; mouse kappa light chain constant region (CL); Whole IgG of one HC and one LC; also called anti-CD3; H2L2H2L2; source: Expi293F, transiently expressed, purified (Ab-Capcher MAG2 or MonoSpin ProG); copies: 2 + 2
Kd [1]: 7.54 µM

B6: mHIT3a mIgG1 V1+C19, homodimeric antibody with FAST-Ig V1+C19 mutations (antibody, V domains shown)
VH: B2 VH
VL: B1 VL with Q1D, V3E, H60R, R62S, I105L, N106K
notes: VH of mHIT3a; mouse IgG1 (mIgG1) heavy chain constant region; numbers count on: Eu numbering; VL of mHIT3a; mouse kappa light chain constant region (CL); numbers count on: Kabat numbering; Whole IgG of one HC and one LC; also called anti-CD3; H2L2H2L2; source: Expi293F, transiently expressed, purified (Ab-Capcher MAG2 or MonoSpin ProG); copies: 2 + 2
Kd [1]: 8.32 µM

B9: m12F6 mIgG1 V1+C19, homodimeric antibody with FAST-Ig V1+C19 mutations (antibody, V domains shown)
VH: QVQLQQSGAELARPGASVKMSCKASGYTFTSYTMHWVKERPGQGLEWIGYINPSSGYTKYNQKFKDKATLTADKSSSTAYMQLSSLTSEDSAVYYCARWQDYDVYFDYWGQGTTLTVSS
VL: QIVLSQSPAILSASPGEKVTMTCRASSSVSYMHWYQKKPGSSPKPWIYATSNLASGVPARFSGSGSGTSYSLTISRVEAEDAATYYCQQWSSNPPTFGGGTKLETK
notes: VH of m12F6; mouse IgG1 (mIgG1) heavy chain constant region; numbers count on: Eu numbering; VL of m12F6; mouse kappa light chain constant region (CL); numbers count on: Kabat numbering; Whole IgG of one HC and one LC; also called anti-CD3; H2L2H2L2; source: Expi293F, transiently expressed, purified (Ab-Capcher MAG2 or MonoSpin ProG); copies: 2 + 2
Kd [1]: 16.1 µM

B10: m12F6 mIgG2a, homodimeric antibody without FAST-Ig mutations (antibody, V domains shown)
VH: B9 VH with E39Q
VL: B9 VL with K37Q
notes: VH of the original mouse antibody m12F6; mouse IgG2a (mIgG2a) heavy chain constant region; numbers count on: Eu numbering; VL of the original mouse antibody m12F6; mouse kappa light chain constant region (CL); Whole IgG of one HC and one LC; also called anti-CD3; H2L2H2L2; source: Expi293F, transiently expressed, purified (Ab-Capcher MAG2, MonoSpin ProA or MonoSpin ProG); copies: 2 + 2
Kd [1]: 16.7 µM

B11: m12F6 mIgG2a V1+C19, homodimeric antibody with FAST-Ig V1+C19 mutations (antibody, V domains shown)
VH: B9 VH
VL: B9 VL
notes: VH of m12F6; mouse IgG2a (mIgG2a) heavy chain constant region; numbers count on: Eu numbering; VL of m12F6; mouse kappa light chain constant region (CL); numbers count on: Kabat numbering; Whole IgG of one HC and one LC; also called anti-CD3; H2L2H2L2; source: Expi293F, transiently expressed, purified (Ab-Capcher MAG2, MonoSpin ProA or MonoSpin ProG); copies: 2 + 2
Kd [1]: 16.4 µM
